The target of test [1] is AD-TRβ (UniProt P04386 768-881). Put plainly: cell-based or functional assay.
For test [2], the target named is T1, AD-HRt(mouse) (mouse, UniProt Q61645 490-1182).
T1 sequence (looked up): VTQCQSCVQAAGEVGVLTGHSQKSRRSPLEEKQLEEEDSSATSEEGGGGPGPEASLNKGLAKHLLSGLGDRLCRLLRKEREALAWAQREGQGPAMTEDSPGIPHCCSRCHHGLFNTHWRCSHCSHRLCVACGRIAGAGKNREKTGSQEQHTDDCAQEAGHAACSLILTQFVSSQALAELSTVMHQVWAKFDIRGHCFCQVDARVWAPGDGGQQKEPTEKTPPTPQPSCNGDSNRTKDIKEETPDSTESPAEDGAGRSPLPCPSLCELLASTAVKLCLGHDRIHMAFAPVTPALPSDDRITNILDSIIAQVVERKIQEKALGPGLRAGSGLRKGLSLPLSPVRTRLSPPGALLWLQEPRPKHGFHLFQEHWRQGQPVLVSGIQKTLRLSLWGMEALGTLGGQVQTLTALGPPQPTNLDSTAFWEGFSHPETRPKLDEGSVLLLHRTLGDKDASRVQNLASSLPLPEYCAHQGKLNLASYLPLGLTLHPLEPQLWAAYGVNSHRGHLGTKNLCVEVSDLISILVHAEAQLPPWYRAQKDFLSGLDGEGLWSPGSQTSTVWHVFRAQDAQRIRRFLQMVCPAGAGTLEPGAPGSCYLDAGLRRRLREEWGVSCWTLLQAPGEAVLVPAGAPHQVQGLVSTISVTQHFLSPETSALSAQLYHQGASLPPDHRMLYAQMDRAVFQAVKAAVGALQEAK
Put plainly: cell-based or functional assay.

The target of test [3] is T2, LexA BD-HRt (mouse, UniProt P0A7C2 1-202; Q61645 490-1182).
T2 construct: domain: Lex A DNA BD;range 490-1182; also called BD-HRt(mouse); Lex A DNA BD-HRt
T2 sequence (looked up): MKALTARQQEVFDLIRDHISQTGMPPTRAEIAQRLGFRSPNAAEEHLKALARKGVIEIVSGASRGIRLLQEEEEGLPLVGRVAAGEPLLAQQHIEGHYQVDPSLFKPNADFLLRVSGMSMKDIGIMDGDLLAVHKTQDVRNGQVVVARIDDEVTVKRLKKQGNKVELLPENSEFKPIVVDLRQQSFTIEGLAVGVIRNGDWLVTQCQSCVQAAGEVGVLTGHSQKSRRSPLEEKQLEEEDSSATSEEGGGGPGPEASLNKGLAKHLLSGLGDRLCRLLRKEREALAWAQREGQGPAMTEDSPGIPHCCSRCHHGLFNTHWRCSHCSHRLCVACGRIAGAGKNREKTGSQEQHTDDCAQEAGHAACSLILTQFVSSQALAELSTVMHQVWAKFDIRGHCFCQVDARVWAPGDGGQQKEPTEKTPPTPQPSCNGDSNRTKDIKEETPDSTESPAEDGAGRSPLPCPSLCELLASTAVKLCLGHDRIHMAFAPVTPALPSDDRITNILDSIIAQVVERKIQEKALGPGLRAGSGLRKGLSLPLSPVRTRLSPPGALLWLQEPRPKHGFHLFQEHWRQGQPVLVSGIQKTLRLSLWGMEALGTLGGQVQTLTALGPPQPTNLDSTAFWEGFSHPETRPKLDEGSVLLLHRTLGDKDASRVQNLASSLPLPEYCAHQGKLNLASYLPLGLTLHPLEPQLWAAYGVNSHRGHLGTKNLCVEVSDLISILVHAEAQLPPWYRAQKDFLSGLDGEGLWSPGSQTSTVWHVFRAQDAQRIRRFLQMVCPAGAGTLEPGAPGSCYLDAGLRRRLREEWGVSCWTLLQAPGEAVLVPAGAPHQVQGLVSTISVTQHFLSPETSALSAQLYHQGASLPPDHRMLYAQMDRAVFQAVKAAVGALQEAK
Put plainly: yeast two-hybrid library screen; number of positive clones with this identity.
Excerpt: Clontech Human Keratinocyte GAL4 cDNA library (complexity 2.5×10⁶) in pACT2 vector was used used to screen for HRt interacting proteins. A Leu⁻, Trp⁻ yeast strain with HIS3 and LACZ reporters for yeasts two hybrid interaction (strain L41) was first transformed with LexA BD-HRt palsmid) for Trp⁺ phenotype. The resulting L41/LexA BD-HR transformant was screened to ensure expression of LexA BD-HRt protein and also for lack of auto activation of the reporter genes HIS3 and LACZ. This strain was transformed with Keratinocyte AD-cDNA library and plated on Trp⁻Leu⁻His⁻ plate to select for clones with positive interaction. Colonies that appeared on selsctive plates were subsequently tested for LACZ expression on X-GAL plates. […] AD-plasmid was rescued from the 90 clones and retested for HRt bait dependance. […] The positive clones are expected to contain an AD-IP (interacting partner) that interacts with BD-HRt.

A value given as a limit tells only on which side of the number the result lay.

Chain of AD-TRβ (P04386 768-881): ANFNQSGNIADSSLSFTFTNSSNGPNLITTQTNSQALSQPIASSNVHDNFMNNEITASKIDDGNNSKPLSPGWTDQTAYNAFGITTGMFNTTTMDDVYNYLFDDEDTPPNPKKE

B1: BD-VDR(mouse) (receptor, UniProt P04386 1-147, looked up)
chain: MKLLSSIEQACDICRLKKLKCSKEKPKCAKCLKNNWECRYSPKTKRSPLTRAHLTEVESRLERLEQLFLLIFPREDLDMILKMDSLQDIKALLTGLFVQDNVNKDAVTDRLASVETDMPLTLRQHRISATSSSEESSNKGQRQLTVSMEAMAASTSLPDPGDFDRNVPRICGVCGDRATGFHFNAMTCEGCKGFFRRSMKRKALFTCPFNGDCRITKDNRRHCQACRLKRCVDIGMMKEFILTDEEVQRKREMIMKRKEEEALKDSLRPKLSEEQQHIIAILLDAHHKTYDPTYADFRDFRPPIRADVSTGSYSPRPTLSFSGDSSSNSDLYTPSLDMMEPASFSTMDLNEEGSDDPSVTLDLSPLSMLPHLADLVSYSIQKVIGFAKMIPGFRDLTSDDQIVLLKSSAIEVIMLRSNQSFTLDDMSWDCGSQDYKYDITDVSRAGHTLELIEPLIKFQVGLKKLNLHEEEHVLLMAICIVSPDRPGVQDAKLVEAIQDRLSNTLQTYIRCRHPPPGSHQLYAKMIQKLADLRSLNEEHSKQYRSLSFQPENSMKLTPLVLEVFGNEIS
As to B1, the “yeast two-hybrid reporter with 25 HC” value in test [1] was ~2 fold. For the same molecule, in test [2], the “relative alpha-galactosidase activity (yeast two-hybrid reporter, assay of example 3) with 1alpha, 25-dihydroxy cholecalciferol (25 DHC) at sub-micromolar concentrations” value was > 3 fold and the “relative alpha-galactosidase activity (yeast two-hybrid reporter, assay of example 3) with 25-hydroxy cholecalciferol (25 HC) at sub-micromolar concentrations” value was > 3 fold.

B2: Homo Sapiens Similar to Stromal Antigen 2 (other, UniProt Q8N3U4 1-1231, looked up, not shown: large carriers)
chain: MIAAPEIPTDFNLLQESETHFSSDTDFEDIEGKNQKQGKGKTCKKGKKGPAEKGKGGNGGGKPPSGPNRMNGHHQQNGVENMMLFEVVKMGKSAMQSVVDDWIESYKHDRDIALLDLINFFIQCSGCKGVVTAEMFRHMQNSEIIRKMTEEFDEDSGDYPLTMAGPQWKKFKSSFCEFIGVLVRQCQYSIIYDEYMMDTVISLLTGLSDSQVRAFRHTSTLAAMKLMTALVNVALNLSINMDNTQRQYEAERNKMIGKRANERLELLLQKRKELQENQDEIENMMNAIFKGVFVHRYRDAIAEIRAICIEEIGIWMKMYSDAFLNDSYLKYVGWTMHDKQGEVRLKCLTALQGLYYNKELNSKLELFTSRFKDRIVSMTLDKEYDVAVQAIKLLTLVLQSSEEVLTAEDCENVYHLVYSAHRPVAVAAGEFLYKKLFSRRDPEEDGMMKRRGRQGPNANLVKTLVFFFLESELHEHAAYLVDSMWDCATELLKDWECMNSLLLEEPLSGEEALTDRQESALIEIMLCTIRQAAECHPPVGRGTGKRVLTAKEKKTQLDDRTKITELFAVALPQLLAKYSVDAEKVTNLLQLPQYFDLEIYTTGRLEKHLDALLRQIRNIVEKHTDTDVLEACSKTYHALCNEEFTIFNRVDISRSQLIDELADKFNRLLEDFLQEGEEPDEDDAYQVLSTLKRITAFHNAHDLSKWDLFACNYKLLKTGIENGDMPEQIVIHALQCTHYVILWQLAKITESSSTKEDLLRLKKQMRVFCQICQHYLTNVNTTVKEQAFTILCDILMIFSHQIMSGGRDMLEPLVYTPDSSLQSELLSFILDHVFIEQDDDNNSADGQQEDEASKIEALHKRRNLLAAFCKLIVYTVVEMNTAADIFKQYMKYYNDYGDIIKETMSKTRQIDKIQCAKTLILSLQQLFNEMIQENGYNFDRSSSTFSGIKELARRFALTFGLDQLKTREAIAMLHKDGIEFAFKEPNPQGESHPPLNLAFLDILSEFSSKLLRQDKRTVYVYLEKFMTFQMSLRREDVWLPLMSYRNSLLAGGDDDTMSVISGISSRGSTVRSKKSKPSTGKRKVVEGMQLSLTEESSSSDSMWLSREQTLHTPVMMQTPQLTSTIMREPKRLRPEDSFMSVYPMQTEHHQTPLDYNRRGTSLMEDDEEPIVEDVMMSSEGRIEDLNEGMDFDTMDIDLPPSKNRRERTELKPDFFDPASIMDESVLGVSMF
notes: Prey clone; also called AD-IP; BC001765
For B2, in test [3], the Hits was determined as 4.

The record behind these values is patent US20050106141A1 (PROCTER AND GAMBLE, published 2005).
